The text below walks through data of paper doi:10.1101/2021.06.07.447357.

Test [1] has as its target 31 kDa recombinant Tic40s form (Brassica napus). Briefly: dynamic light scattering.
For test [2] the target is unchanged. Nature of the test: dynamic light scattering. This is another data set of the same source.
Test [3] deals with Recombinant Tic40s with a carboxyl-terminal histidine tag (40 kDa form) (Brassica napus). Briefly: AUC.
Test [4] has the same target. Briefly: AUC. The source holds these as a separate data set.

Where two headings read alike, the source gives them in different places.

As to “31 kDa recombinant Tic40s form (domain or fragment)”, the results for the stoichiometry N in test [1] and in test [2] were 4 and 2, respectively.
For “Recombinant Tic40s with a carboxyl-terminal histidine tag (40 kDa form) (domain or fragment)”, the stoichiometry N (commonly a count of units in the complex or per binding partner) in test [3] came out at 4; in test [4], 3.
